Test results taken from article PMC9482650, “Quantitative fragmentomics allow affinity mapping of interactomes” (Nature Communications, 2022).

B1: WWTR1, Q9GZV5 (peptide)
chain: NKSEPFLTWL
B2: CLDN8, P56748 (peptide)
chain: PSVYSRSQYV
B3: MCC, P23508 (peptide)
chain: SRPHTNETSL
B4: SIPA1, Q96FS4 (peptide)
chain: QLGSPTADLA
B5: GYPC, P04921 (peptide)
chain: GDSSRKEYFI

biological target: T1, CARD11, Q9BXL7; assay: holdup assay; parameters: key: below the threshold = too weak to quantify, mostly under pKd 3.1 to 4; details: plain residues with an end cap or a label only (N-terminal biotin on a linker: ado-ado)
T1 sequence (Q9BXL7 662-765, limits assumed, looked up): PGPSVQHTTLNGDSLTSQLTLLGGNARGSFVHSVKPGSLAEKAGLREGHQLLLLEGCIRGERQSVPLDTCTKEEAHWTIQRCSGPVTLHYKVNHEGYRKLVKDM

Binder	pKd
B1	below the threshold
B2	below the threshold
B3	below the threshold
B4	below the threshold
B5	below the threshold

biological target: CASK, O14936; assay: holdup assay; parameters: key: below the threshold = too weak to quantify, mostly under pKd 3.1 to 4; details: plain residues with an end cap or a label only (N-terminal biotin on a linker: ado-ado)
Sequence (O14936 487-570): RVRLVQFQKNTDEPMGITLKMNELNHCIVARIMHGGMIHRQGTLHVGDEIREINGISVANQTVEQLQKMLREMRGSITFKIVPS

Binder	pKd
B1	below the threshold
B2	below the threshold
B3	below the threshold
B4	below the threshold
B5	below the threshold

biological target: DLG2_2, Q15700; assay: holdup assay; parameters: key: below the threshold = too weak to quantify, mostly under pKd 3.1 to 4; details: plain residues with an end cap or a label only (N-terminal biotin on a linker: ado-ado)
Sequence (Q15700 189-283): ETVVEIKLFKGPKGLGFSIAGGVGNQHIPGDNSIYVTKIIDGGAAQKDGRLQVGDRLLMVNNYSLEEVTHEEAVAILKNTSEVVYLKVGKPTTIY

Binder	pKd
B1	below the threshold
B2	below the threshold
B3	below the threshold
B4	below the threshold
B5	below the threshold

biological target: FRMPD2_1, Q68DX3; assay: holdup assay; parameters: key: below the threshold = too weak to quantify, mostly under pKd 3.1 to 4; details: plain residues with an end cap or a label only (N-terminal biotin on a linker: ado-ado)
Sequence (Q68DX3 770-861): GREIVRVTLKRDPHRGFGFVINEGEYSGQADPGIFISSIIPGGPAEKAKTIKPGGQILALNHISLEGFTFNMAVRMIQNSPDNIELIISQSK

Binder	pKd
B1	below the threshold
B2	4.36
B3	below the threshold
B4	below the threshold
B5	below the threshold

biological target: GOPC, Q9HD26; assay: holdup assay; parameters: key: below the threshold = too weak to quantify, mostly under pKd 3.1 to 4; details: plain residues with an end cap or a label only (N-terminal biotin on a linker: ado-ado)

Binder	pKd
B1	4.16
B2	below the threshold
B3	3.9
B4	below the threshold
B5	below the threshold

biological target: T2, GRIP1_2, Q9Y3R0; assay: holdup assay; parameters: key: below the threshold = too weak to quantify, mostly under pKd 3.1 to 4; details: plain residues with an end cap or a label only (N-terminal biotin on a linker: ado-ado)
T2 sequence (Q9Y3R0 145-248, limits assumed, looked up): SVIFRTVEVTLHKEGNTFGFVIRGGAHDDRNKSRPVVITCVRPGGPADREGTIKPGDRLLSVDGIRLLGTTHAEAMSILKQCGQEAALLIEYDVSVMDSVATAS

Binder	pKd
B1	below the threshold
B2	below the threshold
B3	below the threshold
B4	below the threshold
B5	below the threshold

biological target: GRIP2_3, Q9C0E4; assay: holdup assay; parameters: key: below the threshold = too weak to quantify, mostly under pKd 3.1 to 4; details: plain residues with an end cap or a label only (N-terminal biotin on a linker: ado-ado)
Sequence (Q9C0E4 238-339): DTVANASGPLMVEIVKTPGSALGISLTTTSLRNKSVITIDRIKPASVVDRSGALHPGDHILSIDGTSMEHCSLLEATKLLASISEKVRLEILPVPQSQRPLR

Binder	pKd
B1	below the threshold
B2	below the threshold
B3	below the threshold
B4	below the threshold
B5	below the threshold

biological target: GRIP2_4, Q9C0E4; assay: holdup assay; parameters: key: below the threshold = too weak to quantify, mostly under pKd 3.1 to 4; details: plain residues with an end cap or a label only (N-terminal biotin on a linker: ado-ado)
Sequence (Q9C0E4 446-548): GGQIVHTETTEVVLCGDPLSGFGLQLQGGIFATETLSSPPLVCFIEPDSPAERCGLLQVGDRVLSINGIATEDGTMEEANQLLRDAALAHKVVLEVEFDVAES

Binder	pKd
B1	below the threshold
B2	below the threshold
B3	below the threshold
B4	below the threshold
B5	below the threshold

biological target: HTRA1, Q92743; assay: holdup assay; parameters: key: below the threshold = too weak to quantify, mostly under pKd 3.1 to 4; details: plain residues with an end cap or a label only (N-terminal biotin on a linker: ado-ado)
Sequence (Q92743 360-477): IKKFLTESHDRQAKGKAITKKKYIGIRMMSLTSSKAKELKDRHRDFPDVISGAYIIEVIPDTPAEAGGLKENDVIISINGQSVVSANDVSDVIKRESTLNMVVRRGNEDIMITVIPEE

Binder	pKd
B1	4.91
B2	5.03
B3	below the threshold
B4	below the threshold
B5	4.74

biological target: T3, HTRA4, P83105; assay: holdup assay; parameters: key: below the threshold = too weak to quantify, mostly under pKd 3.1 to 4; details: plain residues with an end cap or a label only (N-terminal biotin on a linker: ado-ado)
T3 sequence (P83105 378-476, limits assumed, looked up): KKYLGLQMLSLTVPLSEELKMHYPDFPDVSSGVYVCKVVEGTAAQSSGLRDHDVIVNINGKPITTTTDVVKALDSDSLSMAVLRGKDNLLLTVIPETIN

Binder	pKd
B1	4.6
B2	4.23
B3	below the threshold
B4	below the threshold
B5	below the threshold

biological target: Inadl_5, Q8NI35; assay: holdup assay; parameters: key: below the threshold = too weak to quantify, mostly under pKd 3.1 to 4; details: plain residues with an end cap or a label only (N-terminal biotin on a linker: ado-ado)
Sequence (Q8NI35 673-780): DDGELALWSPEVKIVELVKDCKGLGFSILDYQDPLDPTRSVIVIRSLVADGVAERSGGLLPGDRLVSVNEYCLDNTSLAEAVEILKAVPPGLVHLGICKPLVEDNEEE

Binder	pKd
B1	below the threshold
B2	4.31
B3	below the threshold
B4	below the threshold
B5	5.16

biological target: Inadl_6, Q8NI35; assay: holdup assay; parameters: key: below the threshold = too weak to quantify, mostly under pKd 3.1 to 4; details: plain residues with an end cap or a label only (N-terminal biotin on a linker: ado-ado)
Sequence (Q8NI35 1058-1167): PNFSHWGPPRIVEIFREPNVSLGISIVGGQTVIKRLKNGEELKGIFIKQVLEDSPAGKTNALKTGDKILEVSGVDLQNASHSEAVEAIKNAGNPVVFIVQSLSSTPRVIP

Binder	pKd
B1	5.68
B2	below the threshold
B3	3.83
B4	below the threshold
B5	3.54

biological target: LDB3, O75112; assay: holdup assay; parameters: key: below the threshold = too weak to quantify, mostly under pKd 3.1 to 4; details: plain residues with an end cap or a label only (N-terminal biotin on a linker: ado-ado)
Sequence (O75112 1-94): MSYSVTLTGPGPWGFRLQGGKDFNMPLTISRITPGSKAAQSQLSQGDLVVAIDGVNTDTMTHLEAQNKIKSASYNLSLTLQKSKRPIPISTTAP

Binder	pKd
B1	4.47
B2	below the threshold
B3	below the threshold
B4	below the threshold
B5	below the threshold

biological target: LNX1_3, Q8TBB1; assay: holdup assay; parameters: key: below the threshold = too weak to quantify, mostly under pKd 3.1 to 4; details: plain residues with an end cap or a label only (N-terminal biotin on a linker: ado-ado)
Sequence (Q8TBB1 500-596): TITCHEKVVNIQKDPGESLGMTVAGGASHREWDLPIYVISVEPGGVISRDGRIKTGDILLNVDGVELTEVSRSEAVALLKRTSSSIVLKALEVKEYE

Binder	pKd
B1	below the threshold
B2	below the threshold
B3	below the threshold
B4	below the threshold
B5	below the threshold

biological target: MAGI2_3, Q86UL8; assay: holdup assay; parameters: key: below the threshold = too weak to quantify, mostly under pKd 3.1 to 4; details: plain residues with an end cap or a label only (N-terminal biotin on a linker: ado-ado)
Sequence (Q86UL8 600-682): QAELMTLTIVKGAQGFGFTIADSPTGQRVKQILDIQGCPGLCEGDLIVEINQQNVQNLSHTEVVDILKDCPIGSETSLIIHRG

Binder	pKd
B1	3.48
B2	below the threshold
B3	below the threshold
B4	3.56
B5	below the threshold

biological target: MAGI2_4, Q86UL8; assay: holdup assay; parameters: key: below the threshold = too weak to quantify, mostly under pKd 3.1 to 4; details: plain residues with an end cap or a label only (N-terminal biotin on a linker: ado-ado)
Sequence (Q86UL8 772-865): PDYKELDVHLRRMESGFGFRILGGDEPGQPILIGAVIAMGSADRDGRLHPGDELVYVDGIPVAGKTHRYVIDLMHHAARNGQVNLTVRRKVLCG

Binder	pKd
B1	3.85
B2	3.62
B3	below the threshold
B4	below the threshold
B5	below the threshold

biological target: MAGI2_5, Q86UL8; assay: holdup assay; parameters: key: below the threshold = too weak to quantify, mostly under pKd 3.1 to 4; details: plain residues with an end cap or a label only (N-terminal biotin on a linker: ado-ado)
Sequence (Q86UL8 915-1017): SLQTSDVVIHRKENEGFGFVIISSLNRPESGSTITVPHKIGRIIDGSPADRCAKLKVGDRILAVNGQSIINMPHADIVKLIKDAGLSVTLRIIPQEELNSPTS

Binder	pKd
B1	3.94
B2	below the threshold
B3	3.72
B4	below the threshold
B5	below the threshold

biological target: MAST1, Q9Y2H9; assay: holdup assay; parameters: key: below the threshold = too weak to quantify, mostly under pKd 3.1 to 4; details: plain residues with an end cap or a label only (N-terminal biotin on a linker: ado-ado)
Sequence (Q9Y2H9 962-1065): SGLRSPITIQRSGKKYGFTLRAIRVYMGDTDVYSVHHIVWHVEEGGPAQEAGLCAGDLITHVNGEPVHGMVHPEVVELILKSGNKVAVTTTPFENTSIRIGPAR

Binder	pKd
B1	4.25
B2	3.95
B3	4.96
B4	3.84
B5	below the threshold

biological target: T4, NHERF3_3, Q5T2W1; assay: holdup assay; parameters: key: below the threshold = too weak to quantify, mostly under pKd 3.1 to 4; details: plain residues with an end cap or a label only (N-terminal biotin on a linker: ado-ado)
T4 sequence (Q5T2W1 238-333, limits assumed, looked up): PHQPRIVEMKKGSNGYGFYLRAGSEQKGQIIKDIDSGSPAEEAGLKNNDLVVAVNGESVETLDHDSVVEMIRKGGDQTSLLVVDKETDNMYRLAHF

Binder	pKd
B1	4.12
B2	below the threshold
B3	below the threshold
B4	below the threshold
B5	below the threshold

biological target: T5, NHERF3_4, Q5T2W1; assay: holdup assay; parameters: key: below the threshold = too weak to quantify, mostly under pKd 3.1 to 4; details: plain residues with an end cap or a label only (N-terminal biotin on a linker: ado-ado)
T5 sequence (Q5T2W1 373-468, limits assumed, looked up): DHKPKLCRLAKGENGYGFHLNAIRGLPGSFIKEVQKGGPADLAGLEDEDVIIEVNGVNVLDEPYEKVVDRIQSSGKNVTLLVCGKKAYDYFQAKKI

Binder	pKd
B1	4.15
B2	4.13
B3	below the threshold
B4	below the threshold
B5	below the threshold

biological target: NHERF4_2, Q86UT5; assay: holdup assay; parameters: key: below the threshold = too weak to quantify, mostly under pKd 3.1 to 4; details: plain residues with an end cap or a label only (N-terminal biotin on a linker: ado-ado)
Sequence (Q86UT5 220-308): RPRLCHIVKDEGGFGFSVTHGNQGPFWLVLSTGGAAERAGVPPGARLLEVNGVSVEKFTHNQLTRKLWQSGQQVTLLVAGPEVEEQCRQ

Binder	pKd
B1	below the threshold
B2	below the threshold
B3	below the threshold
B4	below the threshold
B5	below the threshold

biological target: T6, PDZD2_2, O15018; assay: holdup assay; parameters: key: below the threshold = too weak to quantify, mostly under pKd 3.1 to 4; details: plain residues with an end cap or a label only (N-terminal biotin on a linker: ado-ado)
T6 sequence (O15018 329-429, limits assumed, looked up): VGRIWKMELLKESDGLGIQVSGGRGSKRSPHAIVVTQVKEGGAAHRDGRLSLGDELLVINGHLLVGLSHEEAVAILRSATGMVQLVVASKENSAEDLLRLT

Binder	pKd
B1	5.89
B2	4.55
B3	below the threshold
B4	below the threshold
B5	4.28

biological target: PICK1, Q9NRD5; assay: holdup assay; parameters: key: below the threshold = too weak to quantify, mostly under pKd 3.1 to 4; details: plain residues with an end cap or a label only (N-terminal biotin on a linker: ado-ado)
Sequence (Q9NRD5 17-115): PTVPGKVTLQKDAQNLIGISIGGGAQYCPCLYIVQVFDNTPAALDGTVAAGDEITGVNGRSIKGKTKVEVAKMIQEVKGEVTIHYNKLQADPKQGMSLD

Binder	pKd
B1	below the threshold
B2	below the threshold
B3	below the threshold
B4	below the threshold
B5	below the threshold

biological target: PTPN3, P26045; assay: holdup assay; parameters: key: below the threshold = too weak to quantify, mostly under pKd 3.1 to 4; details: plain residues with an end cap or a label only (N-terminal biotin on a linker: ado-ado)
Sequence (P26045 505-587): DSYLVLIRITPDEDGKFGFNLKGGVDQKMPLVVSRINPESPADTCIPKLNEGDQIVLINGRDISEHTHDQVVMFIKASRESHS

Binder	pKd
B1	4.74
B2	below the threshold
B3	4.9
B4	below the threshold
B5	4.16

biological target: SCRIB_2, Q14160; assay: holdup assay; parameters: key: below the threshold = too weak to quantify, mostly under pKd 3.1 to 4; details: plain residues with an end cap or a label only (N-terminal biotin on a linker: ado-ado)
Sequence (Q14160 857-960): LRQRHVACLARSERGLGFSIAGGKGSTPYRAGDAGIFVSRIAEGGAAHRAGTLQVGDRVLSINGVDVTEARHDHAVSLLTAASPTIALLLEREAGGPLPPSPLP

Binder	pKd
B1	below the threshold
B2	below the threshold
B3	4.28
B4	below the threshold
B5	3.69

biological target: T7, SIPA1L2, Q9P2F8; assay: holdup assay; parameters: key: below the threshold = too weak to quantify, mostly under pKd 3.1 to 4; details: plain residues with an end cap or a label only (N-terminal biotin on a linker: ado-ado)
T7 sequence (Q9P2F8 945-1036, limits assumed, looked up): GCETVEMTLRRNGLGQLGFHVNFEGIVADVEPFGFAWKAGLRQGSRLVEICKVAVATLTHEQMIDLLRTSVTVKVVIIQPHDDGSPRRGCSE

Binder	pKd
B1	below the threshold
B2	below the threshold
B3	below the threshold
B4	below the threshold
B5	below the threshold

biological target: T8, SNTA1, Q13424; assay: holdup assay; parameters: key: below the threshold = too weak to quantify, mostly under pKd 3.1 to 4; details: plain residues with an end cap or a label only (N-terminal biotin on a linker: ado-ado)
T8 sequence (Q13424 82-180, limits assumed, looked up): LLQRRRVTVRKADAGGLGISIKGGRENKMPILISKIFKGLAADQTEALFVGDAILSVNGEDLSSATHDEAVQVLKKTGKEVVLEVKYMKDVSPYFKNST

Binder	pKd
B1	below the threshold
B2	below the threshold
B3	4.47
B4	below the threshold
B5	below the threshold

biological target: T9, SNTG1, Q9NSN8; assay: holdup assay; parameters: key: below the threshold = too weak to quantify, mostly under pKd 3.1 to 4; details: plain residues with an end cap or a label only (N-terminal biotin on a linker: ado-ado)
T9 sequence (Q9NSN8 52-150, limits assumed, looked up): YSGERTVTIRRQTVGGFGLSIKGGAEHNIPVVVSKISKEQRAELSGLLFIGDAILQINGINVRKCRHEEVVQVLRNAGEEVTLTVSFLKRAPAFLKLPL

Binder	pKd
B1	below the threshold
B2	below the threshold
B3	3.93
B4	below the threshold
B5	below the threshold

biological target: T10, TJP3_3, O95049; assay: holdup assay; parameters: key: below the threshold = too weak to quantify, mostly under pKd 3.1 to 4; details: plain residues with an end cap or a label only (N-terminal biotin on a linker: ado-ado)
T10 sequence (O95049 375-456, limits assumed, looked up): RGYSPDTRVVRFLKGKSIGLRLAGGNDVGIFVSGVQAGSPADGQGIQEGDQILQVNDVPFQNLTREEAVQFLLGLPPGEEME

Binder	pKd
B1	4.15
B2	3.82
B3	below the threshold
B4	below the threshold
B5	3.69
